This is an account of results in US6753317.

Non-standard residues stand in square brackets, D forms with d. *: point of attachment. Dmt = Cc1cc(O)cc(C)c1C[C@H](N)C(=O)O; Tic = O=C(O)[C@@H]1Cc2ccccc2CN1; NHNH2 = NN*

For test [1], the target named is δ-opioid receptor (rat brain synaptosomal preparation) (rat) (UniProt P33533). The experiment in a line: radioligand competition vs [^3H]N,N(CH3)2-Dmt-Tic-OH, rat brain synaptosomes. For orientation: Displacement assays read how much labelled ligand stays bound in the presence of the test substance.
Chain of δ-opioid receptor (rat brain synaptosomal preparation) (rat) (P33533 whole entry, stated change not applied): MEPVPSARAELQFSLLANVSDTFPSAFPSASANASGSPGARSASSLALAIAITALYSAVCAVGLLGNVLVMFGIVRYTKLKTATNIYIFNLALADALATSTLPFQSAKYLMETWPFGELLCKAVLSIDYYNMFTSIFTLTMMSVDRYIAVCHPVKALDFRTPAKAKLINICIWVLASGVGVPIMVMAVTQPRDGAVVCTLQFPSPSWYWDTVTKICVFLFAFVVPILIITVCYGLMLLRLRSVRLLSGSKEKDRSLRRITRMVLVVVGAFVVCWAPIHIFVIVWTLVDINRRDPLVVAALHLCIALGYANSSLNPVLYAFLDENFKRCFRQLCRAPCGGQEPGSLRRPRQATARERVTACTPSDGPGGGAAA
The target in test [2] is µ-opioid receptor (rat brain synaptosomal preparation) (rat) (UniProt P33535). As to the kind of experiment: radioligand competition vs [^3H]DAGO, rat brain synaptosomes.
Chain of µ-opioid receptor (rat brain synaptosomal preparation) (rat) (P33535 whole entry): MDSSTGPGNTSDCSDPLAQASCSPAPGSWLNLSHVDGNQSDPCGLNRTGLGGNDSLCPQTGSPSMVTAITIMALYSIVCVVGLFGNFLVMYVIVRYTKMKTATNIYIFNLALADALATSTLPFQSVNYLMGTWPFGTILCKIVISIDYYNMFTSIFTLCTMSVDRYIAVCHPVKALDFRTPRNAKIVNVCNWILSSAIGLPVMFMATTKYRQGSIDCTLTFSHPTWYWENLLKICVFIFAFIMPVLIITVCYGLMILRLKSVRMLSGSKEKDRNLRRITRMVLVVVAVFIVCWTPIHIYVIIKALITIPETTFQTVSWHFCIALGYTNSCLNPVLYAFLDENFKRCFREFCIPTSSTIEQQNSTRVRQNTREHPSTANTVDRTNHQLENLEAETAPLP
Test [3] concerns the target δ-opioid receptor (rat brain synaptosomal preparation) (rat) (UniProt P33533). The experiment in a line: radioligand competition vs [^3H]DPDPE, rat brain synaptosomes.
The target of test [4] is δ-opioid receptor of the mouse vas deferens (MVD) (mouse) (UniProt P32300). The experiment in a line: cell-based or functional assay.
Chain of δ-opioid receptor of the mouse vas deferens (MVD) (mouse) (P32300 whole entry, stated change not applied): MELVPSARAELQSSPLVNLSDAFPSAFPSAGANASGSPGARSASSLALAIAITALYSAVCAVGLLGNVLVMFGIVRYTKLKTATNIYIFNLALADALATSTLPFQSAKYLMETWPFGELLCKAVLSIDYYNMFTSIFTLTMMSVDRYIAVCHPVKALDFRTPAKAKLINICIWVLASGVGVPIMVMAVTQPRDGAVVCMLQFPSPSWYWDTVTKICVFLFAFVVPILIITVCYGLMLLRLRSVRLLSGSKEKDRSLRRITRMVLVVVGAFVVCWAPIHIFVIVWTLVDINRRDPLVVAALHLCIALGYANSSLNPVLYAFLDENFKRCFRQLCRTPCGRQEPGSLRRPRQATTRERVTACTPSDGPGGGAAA

Broadly, the Ki is the dissociation constant of the complex between target and ligand, obtained from inhibition or displacement. On to H-(R,S)Dmt-Tic-OH (peptide), for which the Ki worked out at 0.8 nM in test [1], 1160 nM in test [2] and 0.46 nM in test [3].
For the substance H-[Dmt]-[Tic]-NHMe, the values for the Ki in test [1], in test [2] and in test [3] were 1.24 nM, 85.5 nM and 0.47 nM, respectively.
With H-Dmt-Tic-NH-1-adamantane (peptide), the Ki in test [1] was 1.01 nM; in test [2], 0.76 nM; in test [3], 0.26 nM.
With H-[Dmt]-[Tic]-OH, the Ki in test [2] came to 3320 nM.
Regarding H-[Dmt]-[Tic]-OMe, the Ki was determined as 500 nM in test [1], 423 nM in test [2] and 9.64 nM in test [3].
Regarding N,N(Me)2-Dmt-Tic-NHMe (peptide), the Ki in test [1] was determined as 0.28 nM; in test [2], 359 nM; in test [3] it was 0.54 nM.
Taken in the same sequence, the figures for “N,N(Me)2-Dmt-D-Tic-NH-1-adamantane (peptide)” were 120 nM, 50.5 nM and 140 nM.
In the case of H-αDmt-Tic-OH (peptide), the values for the Ki in test [1], in test [2] and in test [3] were 475 nM, 1740 nM and 11.2 nM, respectively.
Taken in the same sequence, the figures for H-Dmt-Tic-Ala-NH-1-adamantane (peptide) were 0.04 nM, 2.52 nM and 0.073 nM.
Take “[des-NH2-α-piperidine-1-yl]-Dmt-Tic-OH (peptide)”: the results for the Ki in test [1], in test [2] and in test [3] were 0.74 nM, 2040 nM and 1.18 nM, respectively.
N,N(Et)2-DMT-Tic-OH (peptide) had a Ki in test [3] of 0.92 nM.
For H-Dmt-Tic-Ala-NH-tBu (peptide), the results for the Ki in test [1], in test [2] and in test [3] were 0.08 nM, 4.03 nM and 0.066 nM, respectively.
For the substance H-Dmt-βTic-OH (peptide), the Ki was found to be 0.71 nM in test [1], 418 nM in test [2] and 0.85 nM in test [3].
Taken in the same sequence, the figures for N,N(Me)2-Dmt-Tic-OH (peptide) were 0.07 nM, 2440 nM and 0.12 nM.
Consider H-Dmt-Tic-Ala-OH (peptide), for which the results for the Ki in test [1], in test [2] and in test [3] were 0.29 nM, 813 nM and 0.29 nM, respectively.
For H-Dmt-Tic-NH-tBu (peptide), the Ki in test [1] was found to be 0.93 nM; in test [2] it was 5.96 nM; in test [3], 0.43 nM.
As for H-Dmt-Tic-NH-tetrazole-5-yl (peptide), the Ki was determined as 9.75 nM in test [1], 37 nM in test [2] and 0.7 nM in test [3].
As for “[des-NH2-α-pyrrolidine-1-yl]-Dmt-Tic-OH (peptide)”, the Ki was 1.42 nM in test [1], 814 nM in test [2] and 1.62 nM in test [3].
In the case of H-[Dmt]-[Tic]-NHNH2, the Ki in test [1] worked out at 42 nM; in test [2], 85.1 nM; in test [3], 0.99 nM.
Taken in the same sequence, the figures for H-Dmt-D-Tic-NH-1-adamantane (peptide) were 70.3 nM, 0.26 nM and 24.5 nM.
In test [4], cyclo (DMT-Tic) (peptide) yielded an MVD pA2 of 5.43. This substance also gave a Ki in test [3] of 9.58 nM.
For the substance H-[Dmt]-[Tic]-NH2, the Ki in test [1] came out at 2.13 nM; in test [3] it was 1.22 nM.
Turning to “N,N(Me)2-Dmt-Tic-NH-1-adamantane (peptide)”, the Ki in test [1] was 0.12 nM; in test [2] it was 1.12 nM; in test [3], 0.16 nM. Besides, the fold rise of µ affinity relative to N,N(Me)2-Dmt-Tic-OH in test [2] was 2200 fold.
On to N,N(Me)2-Dmt-Tic-NH-tBu (peptide), for which the Ki was determined as 0.11 nM in test [1], 226 nM in test [2] and 0.61 nM in test [3].
For H-Dmt-Tic-Ala-OMe (peptide), the Ki in test [1] turned out to be 0.14 nM; in test [2], 11.3 nM; in test [3], 0.23 nM.
On to H-Dmt-Tic-Ala-NH2 (peptide), for which the Ki in test [1] was determined as 0.69 nM; in test [2], 47 nM; in test [3] it was 0.24 nM.
The corresponding values for “[des-NH2-α-pyrrole-1-yl]-Dmt-Tic-OH (peptide)” are 9.94 nM, 5590 nM and 16.6 nM.
Taken in the same sequence, the figures for H-Dmt-Tic-Ala-NHMe (peptide) were 0.12 nM, 5.75 nM and 0.058 nM.
